Molecular target: human Xkr8 (hXkr8), from hXkr8-TH-mGFP after TEV cleavage (human) (UniProt Q9H6D3)
Assay: cryo-EM structure

UniProt Q9H6D3, sequence (Q9H6D3 whole entry): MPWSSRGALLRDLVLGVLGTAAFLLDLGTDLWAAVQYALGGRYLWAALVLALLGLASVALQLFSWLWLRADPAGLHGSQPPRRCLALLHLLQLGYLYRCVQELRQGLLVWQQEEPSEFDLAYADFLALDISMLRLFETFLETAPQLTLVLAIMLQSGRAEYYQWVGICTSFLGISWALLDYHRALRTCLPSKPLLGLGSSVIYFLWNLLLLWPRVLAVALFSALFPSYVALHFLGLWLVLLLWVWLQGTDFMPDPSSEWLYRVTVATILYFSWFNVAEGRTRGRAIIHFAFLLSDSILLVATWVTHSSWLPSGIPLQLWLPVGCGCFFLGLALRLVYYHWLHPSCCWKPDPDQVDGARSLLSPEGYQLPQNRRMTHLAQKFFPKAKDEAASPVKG

- stoichiometry N: 1
Substance: hBSGΔ (human basigin lacking Ig-like domain 1, N152Q/N186Q, C-terminal FLAG) (domain or fragment)

From paper doi:10.1101/2021.05.06.442885
